According to patent US20250387474A1 (MEDICENNA THERAPEUTICS, published 2025):

B1: human IL-13Rα2 (receptor, UniProt Q14627 27-343, looked up)
chain: DTEIKVNPPQDFEIVDPGYLGYLYLQWQPPLSLDHFKECTVEYELKYRNIGSETWKTIITKNLHYKDGFDLNKGIEAKIHTLLPWQCTNGSEVQSSWAETTYWISPQGIPETKVQDMDCVYYNWQYLLCSWKPGIGVLLDTNYNLFYWYEGLDHALQCVDYIKADGQNIGCRFPYLEASDYKDFYICVNGSSENKPIRSSYFTFQLQNIVKPLPPVYLTFTRESSCEIKLKWSIPLGPIPARCFDYEIEIREDDTTLVTATVENETYTLKTTNETRQLCFVVRSKVNIYCSDDGIWSEWSDKQCWEGEDLSKKTLLR
notes: also called Human IL-13 R alpha 2 Protein; IL-13 decoy receptor
B2: human IL-13Rα1 (receptor)
chain: GGGGAAPTETQPPVTNLSVSVENLCTVIWTWNPPEGASSNCSLWYFSHFGDKQDKKIAPETRRSIEVPLNERICLQVGSQCSTNESEKPSILVEKCISPPEGDPESAVTELQCIWHNLSYMKCSWLPGRNTSPDTNYTLYYWHRSLEKIHQCENIFREGQYFGCSFDLTKVKDSSFEQHSVQIMVKDNAGKIKPSFNIVPLTSRVKPDPPHIKNLSFHNDDLYVQWENPQNFISRCLFYEVEVNNSQTETHNVFYVQEAKCENPEFERNVENTSCFMVPGVLPDTLNTVRIRVKTNKLCYEDDKLWSNWSQEMSIGKKRNST
notes: also called Human IL-13 R alpha 1 Protein; IL-13 functional receptor

Molecular target: T1, MDNA132LR-Fc (1:1 KIH) (Homo sapiens (Human), UniProt P0DOX5 223-448 = IgG part)
T1 construct: also called MDNA132^L39/R111-Fc (1:1 KIH); MDNA132-Fc
Test: SPR, construct captured on anti-human IgG (Fc) antibody on a CM5 chip, human receptor as analyte

Row | Binder | Kd | binding result
1 | B1 | 3.6 nM | 
2 | B2 |  | no binding (tested: 1000 nM)
